In publication PMC1769499:

Tests used:
[1] = target: recombinant Lhcb1 protein (LHCII apoprotein reconstituted in vitro with chlorophylls and xanthophylls); assay: sucrose density gradient ultracentrifugation; in vitro trimerization of Lhcb1 reconstituted with a mix of all xanthophylls (L,V,N) plus Chl a and b; bound to Ni2+ column, washed with 0.1 mg/ml PG, 0.06% β-DM, 0.2 M NaCl, 20 mM phosphate pH 7.5, 10 mM imidazole; eluted, trimers separated from monomers on a sucrose gradient
[2] = target: recombinant Lhcb1 protein (LHCII apoprotein reconstituted in vitro with chlorophylls and xanthophylls); assay: sucrose density gradient ultracentrifugation; in vitro trimerization of Lhcb1 reconstituted with lutein as only xanthophyll (100% lutein) plus Chl a and b; bound to Ni2+ column, washed with 0.1 mg/ml PG, 0.06% β-DM, 0.2 M NaCl, 20 mM phosphate pH 7.5, 10 mM imidazole; eluted, trimers separated from monomers on a sucrose gradient

- stoichiometry N [1]: 3
- stoichiometry N [2]: 3
Substance: recombinant Lhcb1 protein (LHCII apoprotein reconstituted in vitro with chlorophylls and xanthophylls) (natural protein)
